Assay results reported in US20040161776A1 (PSMA DEVELOPMENT, published 2004).

Tests used:
[1] = target: T1, recombinant soluble PSMA (rsPSMA) (human, UniProt Q04609 44-750); test: Biacore, purified mAb captured, rsPSMA in flow
T1 construct: Oligomeric state of the preparation not specified in the assay concerned; also called secreted rsPSMA; PSMAECTO
Experimental: (§1) To determine the kinetics and affinity of the antibodies, the antibodies in crude supernatants, in purified form and in bifunctional chelate modified forms were analyzed using a Biacore 3000 instrument (Biacore Inc., Piscataway, N.J.). Biacore 3000 is a fully automated surface plasmon resonance (SPR)-based biosensor system that is designed to provide real-time kinetic data from assay formats that require no tags or labeling of compounds for biomolecular interactions. It is ideal for screening crude supernatants.
(§2) The streptavidin-coated sensor chips (SA chips, Biacore) were used to capture biotinylated anti-human IgG antibody (Sigma, St. Louis, Mo.). The entire sensor chip surface was conditioned with five injections of conditioning solution (1 M NaCl, 50 mM NaOH) and equilibrated with PBS buffer containing 0.005% polysorbate 20. Two to three thousand resonance units (RU) of biotinylated anti-human IgG antibody (Sigma) were immobilized onto the SA chip followed by an injection of regeneration buffer (glycine-HCl, pH 2.2). […] For each antibody at one concentration, the chip was regenerated and equilibrated. […] Thermodynamic and kinetic rate constants of binding were calculated using the Biacore Evaluation software.

[2] = target: T1, recombinant soluble PSMA (rsPSMA); test: Biacore, mAb captured on anti-human IgG, rsPSMA in flow; crude supernatant
Experimental: as §1, §2

[3] = target: T2, prostate specific membrane antigen (PSMA), full-length human (human, UniProt Q04609 1-750); test: cell-based or functional assay
[4] = target: T2, prostate specific membrane antigen …; test: cell-based or functional assay; remark: listed apart in the source

T2 sequence (Q04609 whole entry): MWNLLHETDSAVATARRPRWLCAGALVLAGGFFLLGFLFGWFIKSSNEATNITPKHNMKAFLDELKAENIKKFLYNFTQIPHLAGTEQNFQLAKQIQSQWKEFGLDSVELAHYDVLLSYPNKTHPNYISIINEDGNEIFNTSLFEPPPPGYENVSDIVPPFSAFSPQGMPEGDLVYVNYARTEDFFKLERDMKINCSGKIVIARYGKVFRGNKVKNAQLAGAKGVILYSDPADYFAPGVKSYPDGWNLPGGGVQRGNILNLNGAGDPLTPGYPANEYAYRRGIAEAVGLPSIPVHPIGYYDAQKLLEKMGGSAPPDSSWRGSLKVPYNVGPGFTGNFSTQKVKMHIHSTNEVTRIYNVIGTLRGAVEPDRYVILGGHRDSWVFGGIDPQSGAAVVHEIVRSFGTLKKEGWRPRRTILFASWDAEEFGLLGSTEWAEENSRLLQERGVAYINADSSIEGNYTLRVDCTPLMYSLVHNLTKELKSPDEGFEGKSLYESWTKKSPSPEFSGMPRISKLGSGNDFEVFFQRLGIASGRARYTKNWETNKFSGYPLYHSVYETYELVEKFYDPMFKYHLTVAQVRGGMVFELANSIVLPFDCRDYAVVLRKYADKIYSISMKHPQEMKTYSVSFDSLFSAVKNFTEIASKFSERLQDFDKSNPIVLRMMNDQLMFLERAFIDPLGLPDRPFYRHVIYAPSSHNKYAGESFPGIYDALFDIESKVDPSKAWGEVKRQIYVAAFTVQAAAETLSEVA
T1 sequence (Q04609 44-750): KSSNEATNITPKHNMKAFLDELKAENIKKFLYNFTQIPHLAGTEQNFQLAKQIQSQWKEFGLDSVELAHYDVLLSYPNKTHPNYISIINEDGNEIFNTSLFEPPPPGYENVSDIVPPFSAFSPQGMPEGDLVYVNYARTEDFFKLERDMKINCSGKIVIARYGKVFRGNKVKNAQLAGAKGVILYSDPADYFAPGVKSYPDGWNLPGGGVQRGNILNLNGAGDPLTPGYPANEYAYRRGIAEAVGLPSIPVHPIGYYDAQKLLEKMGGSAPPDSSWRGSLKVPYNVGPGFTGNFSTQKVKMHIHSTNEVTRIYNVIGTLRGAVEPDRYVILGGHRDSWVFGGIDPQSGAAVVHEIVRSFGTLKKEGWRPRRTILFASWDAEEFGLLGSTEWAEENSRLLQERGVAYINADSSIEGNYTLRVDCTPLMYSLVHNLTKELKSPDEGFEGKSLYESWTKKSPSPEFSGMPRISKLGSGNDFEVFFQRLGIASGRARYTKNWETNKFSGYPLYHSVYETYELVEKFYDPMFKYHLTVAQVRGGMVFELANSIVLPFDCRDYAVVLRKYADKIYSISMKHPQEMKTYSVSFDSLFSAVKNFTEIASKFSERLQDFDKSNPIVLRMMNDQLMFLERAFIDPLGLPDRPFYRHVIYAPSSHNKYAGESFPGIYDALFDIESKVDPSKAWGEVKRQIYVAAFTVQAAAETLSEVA

B1: PSMA 10.3 (antibody, V domains shown)
VH: QEQLVESGGGVVQPGRSLRLSCAASGFTFSTYGMHWVRQAPGKGLEWVAVTWHDGSNKYYADSVKGRFTISRDNSKNTLYLQMNSLRAEDTAVYYCARGGVGATYYYYYGMDVWGQGTTVTVSS
VL: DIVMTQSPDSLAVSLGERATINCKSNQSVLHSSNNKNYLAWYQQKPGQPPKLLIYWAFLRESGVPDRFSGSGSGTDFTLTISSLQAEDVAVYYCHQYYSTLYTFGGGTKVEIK
notes: human antibody from XenoMouse
For B1, the Kd [1] was 0.217 nM and the koff [2] was 0.000363 s⁻¹.

B2: 006 (antibody, V domains shown)
VH: QVQLVESGGGVVQPGRSLRLSCAASGFAFSRYGMHWVRQAPGKGLEWVAVIWYDGSNKYYADSVKGRFTISRDNSKNTQYLQMNSLRAEDTAVYYCARGGDFLYYYYYGMDVWGQGTTVTVSS
VL: DIQMTQSPSSLSASVGDRVTITCRASQGISNYLAWYQQKTGKVPKFLIYEASTLQSGVPSRFSGGGSGTDFTLTISSLQPEDVATYYCQNYNSAPFTFGPGTKVDIK
For B2, the “PSMA+/PSMA- Ratio of tumor uptake, Mean” value [3] was 4.27.

B3: 225Ac labeled mAb 026 (antibody, human IgG1, V domains shown)
VH: QVQLVESGGGVVQPGRSLRLSCAASGFTFSNYVMHWVRQAPGKGLEWVAIIWYDGSNKYYADSVKGRFTISRDNSKNTLYLQMNSLRAEDTAVYYCAGGYNWNYEYHYYGMDVWGQGTTVTVSS
VL: DIQMTQSPSSLSASVGDRVTITCRASQGITNYLAWFQQKPGKAPKSLIYAASSLQSGVPSKFSGSGSGTDFSLTISSLQPEDFATYYCQQYNSYPITFGQGTRLEIK
modifications: 225Ac chelated by bifunctional DOTA conjugated to the antibody, sites not stated
In the case of B3, the “IC50, cell survival (Alamar Blue) of C4-2 and LNCaP cells” value [4] is reported as under 1 nCi/mL, the “IC50, cell survival of C4-2 cells by 3H thymidine incorporation” value [4] is reported as 0.12 nCi/mL and the “selectivity of killing, C4-2 vs PC3” value [4] is reported as over 50 fold.

B4: 026 (antibody, V domains shown)
VH: QVQLVESGGGVVQPGRSLRLSCAASGFTFSNYVMHWVRQAPGKGLEWVAIIWYDGSNKYYADSVKGRFTISRDNSKNTLYLQMNSLRAEDTAVYYCAGGYNWNYEYHYYGMDVWGQGTTVTVSS
VL: DIQMTQSPSSLSASVGDRVTITCRASQGITNYLAWFQQKPGKAPKSLIYAASSLQSGVPSKFSGSGSGTDFSLTISSLQPEDFATYYCQQYNSYPITFGQGTRLEIK
B4 was tested, and the “PSMA+/PSMA- Ratio of tumor uptake, Mean” value [3] was 5.55.
